Eight molecules from article PMC5103362 (Autophagy, 2016) can be followed below.

Series [1] addresses T1, Vps15 (subunit of the purified yeast complex I) (S. cerevisiae, UniProt P22219 1-1454).
T1 construct: Vps15, S. cerevisiae
T1 sequence (looked up): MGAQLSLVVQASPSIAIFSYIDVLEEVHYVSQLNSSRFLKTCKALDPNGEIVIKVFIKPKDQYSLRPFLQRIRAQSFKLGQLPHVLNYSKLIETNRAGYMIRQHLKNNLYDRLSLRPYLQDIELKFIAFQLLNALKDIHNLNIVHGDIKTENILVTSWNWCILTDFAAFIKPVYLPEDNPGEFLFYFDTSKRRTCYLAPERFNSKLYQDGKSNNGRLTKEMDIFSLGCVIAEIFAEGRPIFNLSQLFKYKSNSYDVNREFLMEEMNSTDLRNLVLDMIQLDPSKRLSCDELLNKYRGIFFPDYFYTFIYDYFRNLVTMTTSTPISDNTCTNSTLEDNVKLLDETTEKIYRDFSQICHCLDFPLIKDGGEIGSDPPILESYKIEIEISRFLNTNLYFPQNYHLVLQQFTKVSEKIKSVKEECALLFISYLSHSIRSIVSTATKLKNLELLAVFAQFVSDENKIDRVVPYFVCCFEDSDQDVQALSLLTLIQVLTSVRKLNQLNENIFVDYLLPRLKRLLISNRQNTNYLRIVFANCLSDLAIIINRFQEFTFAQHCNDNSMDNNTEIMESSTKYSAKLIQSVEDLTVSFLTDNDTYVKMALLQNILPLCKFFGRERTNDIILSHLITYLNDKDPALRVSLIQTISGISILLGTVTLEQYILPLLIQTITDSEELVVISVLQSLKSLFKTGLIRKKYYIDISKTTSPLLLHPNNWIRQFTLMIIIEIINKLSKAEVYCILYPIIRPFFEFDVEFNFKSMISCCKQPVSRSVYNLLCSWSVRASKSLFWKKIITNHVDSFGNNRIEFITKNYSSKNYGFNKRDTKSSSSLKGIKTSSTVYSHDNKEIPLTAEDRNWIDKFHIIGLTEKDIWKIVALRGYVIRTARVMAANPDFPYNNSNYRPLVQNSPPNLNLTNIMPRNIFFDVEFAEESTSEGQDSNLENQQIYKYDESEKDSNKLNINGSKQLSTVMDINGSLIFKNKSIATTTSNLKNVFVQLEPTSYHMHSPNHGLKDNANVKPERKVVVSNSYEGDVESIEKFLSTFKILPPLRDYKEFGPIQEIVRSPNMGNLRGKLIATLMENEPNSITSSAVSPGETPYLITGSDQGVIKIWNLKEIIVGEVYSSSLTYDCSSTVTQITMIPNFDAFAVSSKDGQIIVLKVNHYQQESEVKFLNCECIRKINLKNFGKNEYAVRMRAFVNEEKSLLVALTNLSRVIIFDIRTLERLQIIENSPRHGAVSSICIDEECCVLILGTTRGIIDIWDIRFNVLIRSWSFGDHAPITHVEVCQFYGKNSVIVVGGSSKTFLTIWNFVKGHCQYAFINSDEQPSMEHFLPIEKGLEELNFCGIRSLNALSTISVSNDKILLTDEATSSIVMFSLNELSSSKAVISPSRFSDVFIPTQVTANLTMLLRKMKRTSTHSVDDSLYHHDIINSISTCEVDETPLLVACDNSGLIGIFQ
In words: SEC-MALS; purified yeast complex I (co-expressed, co-purified) and gel-filtration purified complex I + Atg38 on S200 10/30; 20 mM Tris pH 8.8, 150 mM NaCl, 1 mM TCEP. As to conditions: both partners purified. In general terms: In gel filtration, larger molecules generally elute earlier.

Series [2] deals with T2, yeast complex I (Vps15-Vps34-Vps30-Atg14 heterotetramer) (S. cerevisiae, UniProt P22219 1-1454; P22543 1-875; Q02948 1-557; P38270 1-344).
T2 construct: Vps15, S. cerevisiae, subunit of complex I; Vps34, S. cerevisiae, subunit of complex I; Vps30/Atg6, S. cerevisiae, subunit of complex I; Atg14, S. cerevisiae, subunit of complex I; expected mass 379 kDa; also called CI; heterotetrameric S. cerevisiae complex I; copies: 1 + 1 + 1 + 1
Nature of the series: pull-down; GST affinity isolation: GST fusions of Atg38 on glutathione Sepharose, purified yeast complex I at 1.78 µM with 10-fold excess of GST fusion; 50 mM Tris pH 8.8, 150 mM NaCl, 1 mM TCEP, on ice 90 min; stained gel. The settings on record: both partners purified.

Series [3] concerns the molecule itself. In words: SEC-MALS; Atg38 full-length, MIT domain and deletion variants alone on S75 10/30; 20 mM Tris pH 7.9, 300 mM NaCl, 1 mM TCEP.
Series [4] concerns the molecule itself. In words: crystal structure; full-length Atg38 after limited proteolysis with subtilisin; 2.2 Å, MAD with selenomethionine protein.

B1: Vps34 (subunit of the purified yeast complex I) (enzyme, S. cerevisiae, UniProt P22543 1-875, looked up)
chain: MSLNNITFCVSQDLDVPLKVKIKSLEGHKPLLKPSQKILNPELMLIGSNVFPSSDLIVSLQVFDKERNRNLTLPIYTPYIPFRNSRTWDYWLTLPIRIKQLTFSSHLRIILWEYNGSKQIPFFNLETSIFNLKDCTLKRGFESLKFRYDVIDHCEVVTDNKDQENLNKYFQGEFTRLPWLDEITISKLRKQRENRTWPQGTFVLNLEFPMLELPVVFIEREIMNTQMNIPTLKNNPGLSTDLREPNRNDPQIKISLGDKYHSTLKFYDPDQPNNDPIEEKYRRLERASKNANLDKQVKPDIKKRDYLNKIINYPPGTKLTAHEKGSIWKYRYYLMNNKKALTKLLQSTNLREESERVEVLELMDSWAEIDIDDALELLGSTFKNLSVRSYAVNRLKKASDKELELYLLQLVEAVCFENLSTFSDKSNSEFTIVDAVSSQKLSGDSMLLSTSHANQKLLKSISSESETSGTESLPIVISPLAEFLIRRALVNPRLGSFFYWYLKSESEDKPYLDQILSSFWSRLDKKSRNILNDQVRLINVLRECCETIKRLKDTTAKKMELLVHLLETKVRPLVKVRPIALPLDPDVLICDVCPETSKVFKSSLSPLKITFKTTLNQPYHLMFKVGDDLRQDQLVVQIISLMNELLKNENVDLKLTPYKILATGPQEGAIEFIPNDTLASILSKYHGILGYLKLHYPDENATLGVQGWVLDNFVKSCAGYCVITYILGVGDRHLDNLLVTPDGHFFHADFGYILGQDPKPFPPLMKLPPQIIEAFGGAESSNYDKFRSYCFVAYSILRRNAGLILNLFELMKTSNIPDIRIDPNGAILRVRERFNLNMSEEDATVHFQNLINDSVNALLPIVIDHLHNLAQYWRT
notes: Vps34, S. cerevisiae
For the molecule B1, in series [1], the “stoichiometry N” value stood at 1.

B2: GST-Atg38 (1 to 78) (domain or fragment, S. cerevisiae, UniProt Q05789 1-78, looked up)
chain: MSTLAEVYTIIEDAEQECRKGDFTNAKAKYQEAIEVLGPQNENLSQNKLSSDVTQAIDLLKQDITAKIQELELLIEKQ
notes: Atg38, S. cerevisiae, MIT domain, residues 1 to 78; also called MIT domain alone; source: E. coli, purified (Glutathione Sepharose, eluted with glutathione); not shown: GST, N-terminal, kept
With B2, in series [2], the binding result was “binds”.

B3: Atg38 capΔ (123 to 181 deleted), recombinant (natural protein, S. cerevisiae, UniProt Q05789 1-226, looked up)
chain: MSTLAEVYTIIEDAEQECRKGDFTNAKAKYQEAIEVLGPQNENLSQNKLSSDVTQAIDLLKQDITAKIQELELLIEKQSSEENNIGMVNNNMLIGSVILNNKSPINGISNARNWDNPAYQDTFKEYGMKIDEITKENKKLANEIGRLRERWDSLVESAKQRRDKQKN
notes: GST fusions were eluted with glutathione or cut with TEV as needed; likely cut for SEC-MALS; source: E. coli, purified (Glutathione Sepharose, S75)
Take B3: the “stoichiometry N” value in series [3] is 2.

B4: Atg38 tailΔ (210 to 226 deleted), recombinant (domain or fragment, S. cerevisiae, UniProt Q05789 1-209, looked up)
chain: MSTLAEVYTIIEDAEQECRKGDFTNAKAKYQEAIEVLGPQNENLSQNKLSSDVTQAIDLLKQDITAKIQELELLIEKQSSEENNIGMVNNNMLIGSVILNNKSPINGISNARNWDNPAYQDTLSPINDPLLMSILNRLQFNLNNDIQLKTEGGKNSKNSEMKINLRLEQFKKELVLYEQKKFKEYGMKIDEITKENKKLANEIGRLRER
notes: Atg38, S. cerevisiae; GST fusions were eluted with glutathione or cut with TEV as needed; likely cut for SEC-MALS; source: E. coli, purified (Glutathione Sepharose, S75)
With B4, the “stoichiometry N” value in series [3] amounted to 2.

B5: Vps30/Atg6 (subunit of the purified yeast complex I) (natural protein, S. cerevisiae, UniProt Q02948 1-557, looked up)
chain: MKCQTCHLPLQLDPSLEGLSLTQRNLLLSNNSIITATNENVISNKGIEAADNCGPQIPKERLRRLGEIQNIKDLNLKDDKLITDSFVFLNHDDDDNANITSNSREDQRYGNANGNDNKKANSDTSDGTSTFRDHDEEEQEATDEDENQQIQLNSKTLSTQVNAMTNVFNILSSQTNIDFPICQDCCNILINRLKSEYDDAIKERDTYAQFLSKLESQNKEISESNKEKQYSHNLSEKENLKKEEERLLDQLLRLEMTDDDLDGELVRLQEKKVQLENEKLQKLSDQNLMDLNNIQFNKNLQSLKLQYELSLNQLDKLRKINIFNATFKISHSGPFATINGLRLGSIPESVVPWKEINAALGQLILLLATINKNLKINLVDYELQPMGSFSKIKKRMVNSVEYNNSTTNAPGDWLILPVYYDENFNLGRIFRKETKFDKSLETTLEIISEITRQLSTIASSYSSQTLTTSQDESSMNNANDVENSTSILELPYIMNKDKINGLSVKLHGSSPNLEWTTAMKFLLTNVKWLLAFSSNLLSKSITLSPTVNYNDKTISGN
notes: Vps30/Atg6, S. cerevisiae
For the molecule B5, in series [1], the “stoichiometry N” value is 1.

B6: Atg38 stalkΔ (182 to 209 deleted), recombinant (natural protein, S. cerevisiae, UniProt Q05789 1-226, looked up)
chain: MSTLAEVYTIIEDAEQECRKGDFTNAKAKYQEAIEVLGPQNENLSQNKLSSDVTQAIDLLKQDITAKIQELELLIEKQSSEENNIGMVNNNMLIGSVILNNKSPINGISNARNWDNPAYQDTLSPINDPLLMSILNRLQFNLNNDIQLKTEGGKNSKNSEMKINLRLEQFKKELVLYEQKKWDSLVESAKQRRDKQKN
notes: as for B3
Take B6: in series [3], the “stoichiometry N” value stood at 2.

B7: Atg38 C-terminal homodimerization domain (crystallized region, residues 119 to 211) (domain or fragment, S. cerevisiae, UniProt Q05789 119-211, looked up)
chain: YQDTLSPINDPLLMSILNRLQFNLNNDIQLKTEGGKNSKNSEMKINLRLEQFKKELVLYEQKKFKEYGMKIDEITKENKKLANEIGRLRERWD
notes: Atg38, S. cerevisiae, crystallized region, residues 119 to 211; Limits are those seen in the crystal; the proteolysed protein was not purified further; A selenomethionine derivative was used for phasing; also called Atg38 C-terminal domain; C-terminal region of Atg38; source: E. coli, purified full-length Atg38 subjected to limited proteolysis with subtilisin
For the molecule B7, in series [4], the binding result is “binds”.

B8: Atg14 (subunit of the purified yeast complex I) (natural protein, S. cerevisiae, UniProt P38270 1-344, looked up)
chain: MHCPICHHRAHVVYCAHCINTSPSLLLKLKLDLILLKDENKELNGKVEQILNEAMNYDQLDIKRMEKKKDPLMNSLMKLDVLRMKKNNNLIRHRIEQLNERIYSKRNHISELKVEIDNYKCYKVGTGTDKLREQVEISDAKNKLAQVSKICESARDYKLNLLNNWFVIQKLQDNFQIPFAIAFQPLISLKNFRILPLAITNDSINIMWKYISFFSDILMIKLPYTNKICEQPMFEFSDSIQTVVQRLIKLIINILQICRHLKLVPSTPMDIPWLLDQYDVDGLFYNMVKRNKMKCRSVSLYWTFGMLYSMVLDNMNNPQRGHPARRTAPPPTVTGPHDRWYVVG
notes: Atg14, S. cerevisiae
Take B8: in series [1], the “stoichiometry N” value came out at 1.

For orientation: stoichiometry N means a count of units in the complex or per binding partner.
